From the DeepSol protein solubility set come the findings set out here.

A short description of this data set: soluble on expression in E. coli; label from the status in PepcDB or PDB records.
For “MGSSHHHHHHSSGRENLYFQGMPIITFLPSGKRAEVDEGKTILSAAQEIGEGIRSLCGGKGSCGKCLVVVRKGDVEILSEEAHEKFVREKGYYLACQTAVKGDVEVFIPPESRLERQQILKDFFISSKEFNPVVKVEFCSDAFLPEVLSQKGLRLACSTDVEEGDFGLVVRGKEVIDVLPDEKAFGLAVDVGTTTIVAALVDLKDGKVVNVASDYNGQIIYGEEVLSRVEFARSRKDGVEVLQRAVVESINKLIDKLLEGYATPDRIYDVVAAGNTIMTHFLVGKDVEYLFSSPDVKVEREGFVVNASEIGLKVNSNAELFCLPPVGRFVGGDIVGDILASRIVDSATISLMVDLGTNGEIVVGSEGWAMATSVASGPAFEGYEIKHGSRAVEGAIDHVEIEGEEVRYTVIGNGKPRSICGSGLIDLMAEMFKNGILDATGAMNKKHPRVRRGEDGYEFVVVEAEKSATAKDIVFTEKDVETLLKSKAAVCAGIAVLIKKAGLGLEDIDEFYIAGAFGYYINFDNAVTIGLFPELKAEVKQIGNGSLAGAYLALVSERKRKLAETIANAFAYFDLSTDADFVEEYRAALSLPGRPELFPETYAKYV”, the “soluble on expression in E. coli” value is given as “soluble”.
Next, “MPVKIPDHLPAAGILESENIFVMSETRAANQDIRPMKVLILNLMPNKIETETQLLRLLGNTPLQVDVDLLRIHDKESKHTSIDHMNTFYRDFEDVRHKNYDGLIITGAPLGQIDFEDVTYWDHIREIIDWSQQHVTSVLFLCWAAHAGLYHLYGLNRKILEQKRSGVFVHRRTCQHFPLLRGFDDEFFAPHSRFAEMDVEEIRQHPQLQLLAESDEAGAYLVLSRNNRNLFVMGHPEYQKSTLNDEYHRDLAQSLNPNVPQNYYRNDDPKADAIARWHSHGSLLVSNWLNYYVYQLTPYDLSDMTAMTPWESQMAGDPLEHHHHHH”: “soluble”; “MDIKELHVKTVKRGENVTMECSMSKVTNKNNLAWYRQSFGKVPQYFVRYYSSNSGYKFAEGFKDSRFSMTVNDQKFDLNIIGAREDDGGEYFCGEVEGIIIKFTSGTRLQFEGSNEGSKSSDGEGSSCPDQMHVLVW”: “soluble”.
The entry for “MIALHFGAGNIGRGFIGALLHHSGYDVVFADVNETMVSLLNEKKEYTVELAEEGRSSEIIGPVSAINSGSQTEELYRLMNEAALITTAVGPNVLKLIAPSIAEGLRRRNTANTLNIIACENMIGGSSFLKKEIYSHLTEAEQKSVSETLGFPNSAVDRIVPIQHHEDPLKVSVEPFFEWVIDESGFKGKTPVINGALFVDDLTPYIERKLFTVNTGHAVTAYVGYQRGLKTVKEAIDHPEIRRVVHSALLETGDYLVKSYGFKQTEHEQYIKNQRSLLKSFHFGRCDPRSEVTSQKTGRKCRLVGPAKKIKEPNALAEGIAAALRFDFTGDPEAVELQALIEEKDTAAYFK” is “not soluble”; for “MSLNIISVGVNHKTAPIEIRERIALSEVQNKELVTDLVSSGLASEAMVVSTCNRTELYVVPGMPEVNCDYLKDYIISYKNARNAVRPEHFFSRFYCGTARHLFEVSCAIDSLVLGEGQILGQVKNAYRIAAEVGTAGILLTRLCHTAFSVAKKVKTRTKLMEGAVSVSYAAVELAQKIFSNLSMKKVLLIGAGETGELAAKHMYAKNARNIVITNRTQSKAEALAEELGTNRVLPYESYKEHLHEFDIIITAVSTKEYILNAAEMQQSMAKRRLKPVIILDLGLPRNVDPEVGALQNMFLKDIDALKHIIDKNLERRRAELPKVKAIIDEELVAFGQWLNTLKVRPTIVDLQSKEGHHHHHH” it is “soluble”.
The entry for “MFSAVHPDSRRDCKKYRYSQTSHQNYWFLKYSEFNLLGKRKIKGNFLHLFHAEEKVLFQSVMLKDQTAKTEKRTQEITCQLSKLANFEENNRKKLQDTERENKKLRNLINSLELKLVSSPENLPLQILFFLISENDELLERVFHFHCATFTKLSDFQLLFFPTPMYVANEYAKSGRNLWNEAIIADAIPEVSGPEAARMKQITDSIKYKESGFLIDRRVNASALIIQSNCSIFNSNF” is “not soluble”; for “MGSDKIHHHHHHYQQQYKMAVHVTPESENDPEWPSKKKWFDASEWLSTPQYIKINDFYVINTRYVPIGDLNSDQIIFYLKKGINGSEKRFSELSVLSDLDNQEFRELMKDKLSSEYLETQFEKETLTPTIDFFLIYFIYNNKRYEVPIRREYSGNKYHYWVLEGSVKKAGYWHERFPTSYSYRKYLNK” it is “not soluble”.
With “MNWNKRLLDTPIIGDITKKIVSAKASREAHNISDHFTQFLQPCVAVSQTLKEEAFKIRHNVYCEELAFEEVRDNGQETDEFDHQSMFSLIKHKPSGTFTSCVRLVTSSGPDELLPIEKYCMGSITNEELSPKRFNRNEIAEISRLAVKSDFRRRKADNYKGSGTGVISEITYSETELRCFPFIAIGLYMAAATMSMNTGIRHVYVMMEPRLARSMKFIGINFQQLGPPVDYHGLRAPYYINPEIFMKNLSPGFKSLFSIIEEDICSQLNQLDLA”, the “soluble on expression in E. coli” value is recorded as “not soluble”.
For “HFVIRSPEDGANLVMEDMRFLTQEHFVCLYLNTKNQVIHKRTVFIGSLNSSIVHPREVFKEAFKRSAASFICVHNHPSGDPTPSREDIEVTRRLFECGNLIGIELLDHLVIGDKKFVSLKEKGYL”, the “soluble on expression in E. coli” value is recorded as “not soluble”.
The entry for “MRALVVGAGIGGLVAARALRRAGLEVLVLEAHTYPGGLAGTFTHRGYRFDAGATLLSGFAPGGPMALVAEALGVCLPVEPFPEGFPLMEVHLPRGPLLRPVGREAEREAQRDFFGPRVLPFWRWQEERAKALLRLAPRLPWPPEREELLRLLALLPELFPLLPDLFLKAAHRAPQDPHFLRFLDAQLLIASQAEAKRTYALYAALALDLPHMGPALVPGGVGRVAEALAEGLPVRYKARAERLLLGEGRALAVEVAYGGRRRGEREVVEADLFVLDVPLAPLLGLPLKVPEDAWGAFVVHGVLPFRAPPPYFRQNAREKPFAFLSLRPEGEKTAFALSLHTPLALWEGLSPEEYGRLKARWGEMALSLGEALLPGLREAELLLFGTPRTYARFAGRAWVGGFPQTHPFRFPRVRPFPNVFRVGEGVFPGQSVPAAALSGLRAARLALEALGLAGSGGEARPSFPPFPLEHHHHHH” is “not soluble”; for “MSRRYDTIKHLGEGQFANVYLAQDLESGECVAIKKIKLGSREEAKDGINRTAIREIKLLKEIHHDNIIGLRDVIGHRTSIQLVFDFMDTDLEHVIKDKEIILMPAHIKNITMQMLLGLEFLHVHWILHRDLKPNNLLMNKMGRVKLTDFGLARFFGSPNRNYTHQVVTRWYRAPELLFGARSYGVGIDIWSVGCIIAELLLRNPIFPGESDIDQLVKIFNILGCPTPETWPNMTEMNSYVIIKPQTEYMALNYYFSAAPQDLLDLMAGMWTFDPIKRLTCTQSLQMEYFRTQPFCCLDEELPLPKKQQPQKRSRRLDDDGTRPVRRLNFD” it is “not soluble”.
The entry for “ADMEVIELNKCTSGQSFEVILKPPSFDGVPEFNASLPRRRDPSLEEIQKKLEAAEERRKYQEAELLKHLAEKREHEREVIQKAIEENNNFIKMAKEKLAQKMESNKENREAHLAAMLERLQEKDKHAEEVRKNKELKEEASR” is “soluble”; for “GGSEDEDSPLDALDLVWAKCRGYPSYPALIIDPKMPREGMFHHGVPIPVPPLEVLKLGEQMTQEAREHLYLVLFFDNKRTWQWLPRTKLVPLGVNQDLDKEKMLEGRKSNIRKSVQIAYHRALQHRSKVQGE” it is “soluble”.
As to “MSLKWLKKQAELYPQKQFLNDSTFAQINQEVNKMAEHLAPLIDNQSRVALLSENSVEMAVVLFALLGLSKEVLLLNRHLTEYELADQIKELKIDKVFTSDLLTEKVTDSISFSEIWTSNPCPVSLSADFPDEKIAVIMNTSATTGKFKSVPITWGMISNHVKASKETLGAYDNDNWLVILPMFHVSGLSIIMRTLYNATSATVVDKFDENQLLEMINSGKINMVSLVPTLLTRIADKLHSNNLRLILLGGEFIPQPLIKKCQELGLPIYKTYGMTESFSQSVTFNILDFPDKTSSVGRPLPGVEIEIRQADLAGVGEIWLKSPMLMKAYLGQKPYGTAFETGDIGYLDTDGFLYLLNRRKDIIISGGENIYPKEIEDLVYSLPEIKECALVAKPDAKWGQVPILFVSGNISQEKLENFLTEKLAKYKRPQSITFMDELPKNASGKILRKELKEGHHHHHH”, the “soluble on expression in E. coli” value is reported as “soluble”.
Consider “MAGRLREMRCELSFLKNADGSACFSQGATCIWASCSGPGDVHASKASDEAMTLDISYRANCGDNKFNVLNNIIHSTLSNAINLELFPHTTISVTVHGIQDDGSMGAVAINGACFALLDNGMPFETVFCGVLIVRVKDELIIDPTAKQEAASTGRVLFSVCKGSDGHPEVCAMDAIGHWDFIQLEAAWSLAQPSASAIFDFYKTVMKRKLSVDEQ”, for which the “soluble on expression in E. coli” value is reported as “not soluble”.
